Data from PMC9011732.

Legend:
[1] = target: monomeric wild-type RBD (319-541) of the SARS-CoV-2 spike (S)-protein (SARS-CoV-2 (Wuhan-Hu-1 isolate)) (UniProt P0DTC2); assay: SEC
[2] = target: tRBD-TA, truncated RBD (319-537) with T323 mutated to alanine (SARS-CoV-2 (Wuhan-Hu-1 isolate)) (UniProt P0DTC2); assay: SEC

Substance | proportion of dimer in the preparation [1] [%] | stoichiometry N [1] | percent of the protein dimerized after 7 days at 25°C [2] [%] | proportion of dimer in the preparation [2] [%]
monomeric wild-type RBD (319-541) of the SARS-CoV-2 spike (S)-protein (from UniProt P0DTC2 319-541) (domain or fragment) | 20 to 25 | 2 | – | –
tRBD-TA, truncated RBD (319-537) with T323 mutated to alanine (from UniProt P0DTC2 319-537) (domain or fragment) | – | – | 10 | 25 to 28
